According to patent US20020082273A1, “Agents for use in the treatment of alzheimer's disease” (priority 1998, published 2002):
Values joined by “and” are separate entries in the source; they are usually repeats but may differ in a detail not shown here. Identical values can stand only once.

Tests used:
[1] = Metal reduction assay, Cu^2+ to Cu^+; assay type: biochemical; conditions: 10 μM Cu^2+, PBS pH 7.4, 1 hr 37° C.
Protocol: Aβ (10 μM in PBS, pH 7.4 or 6.8, as shown) was incubated for 30 minutes (37° C.) in the presence of Cu^2+10 μM ±Zn^2+ 10 μM). […] levels (n=3, ±SD) were assayed against a standard curve.
Polypeptides (10 μM) or Vitamin C (100 μM), metal ions (10 μM, Fe(NO3)3 or Cu(NO3)2), and reduced metal ion indicators, bathophenanthrolinedisulfonic acid (BP, for Fe^2+, Sigma, 200 μM) or bathocuproinedisulfonic acid (BC, for Cu^+, Sigma, 200 μM), were coincubated in phosphate buffered saline (PBS), pH 7.4, for 1 hr at 37° C. The metal ion solutions were prepared by direct dilution in the buffer from their aqueous stocks purchased from National Institute of Standards and Technology (NIST). […] In control samples, both metal ion and indicator were present to determine the background buffer signal. As a further control, both metal ion and peptide were present in the absence of indicator to estimate the contribution of light scattering due to turbidity to the absorbance reading at these wavelengths. The net absorbances (ΔA) at 536 nm or 483 nm were obtained by deducting the absorbances from these controls from the absorbances generated by the peptide and metal in the presence of the respective indicator.

[2] = Metal reduction assay, Fe^3+ to Fe^2+; assay type: biochemical; conditions: 10 μM Fe^3+, PBS pH 7.4, 1 hr 37° C.
Protocol: The metal reduction assay was performed using a 96-well microtiter plate (Costar) based upon a modification of established protocols (Landers, J. W., et al., Amer. Clin. Path. 29:590 (1958); Landers, J. W., et al., Clinica Chimica Acta 3:329 (1958)). Polypeptides (10 μM) or Vitamin C (100 μM), metal ions (10 μM, Fe(NO3)3 or Cu(NO3)2), and reduced metal ion indicators, bathophenanthrolinedisulfonic acid (BP, for Fe^2+, Sigma, 200 μM) or bathocuproinedisulfonic acid (BC, for Cu^+, Sigma, 200 μM), were coincubated in phosphate buffered saline (PBS), pH 7.4, for 1 hr at 37° C. The metal ion solutions were prepared by direct dilution in the buffer from their aqueous stocks purchased from National Institute of Standards and Technology (NIST). Absorbances were then measured at 536 mn (Fe^2+-BP complex) and 483 nm (Cu^+-BC complex), respectively, using a 96-well plate reader (SPECTRAmax 250, Molecular Devices, CA). In control samples, both metal ion and indicator were present to determine the background buffer signal. As a further control, both metal ion and peptide were present in the absence of indicator to estimate the contribution of light scattering due to turbidity to the absorbance reading at these wavelengths. The net absorbances (ΔA) at 536 nm or 483 nm were obtained by deducting the absorbances from these controls from the absorbances generated by the peptide and metal in the presence of the respective indicator.
The concentrations of reduced metal ions (Fe^2+ or Cu^+) were quantified based on the formula: Fe^2+ or Cu^+ (˜M)=A*10^6/(L*M), where L is the measured equivalent vertical pathlength for a well of 300 μL volume as described in the instrument's specifications manual (0.856 cm for Fe^2+; 1.049 cm for Cu^+); M is the known molecular absorbance (M^−1 cm^−1) which is 7124 (for Fe^2+-BP complex) or 2762 (for Cu^+-BC complex).

[3] = Aβ aggregation assay (soluble peptide after centrifugation); assay type: physicochemical, human
Protocol: Aβ stock was diluted to 2.5 μM in 150 mM NaCl and 20 mM glycine (pH 3-4.5), MES (pH 5-6.2) or HEPES (pH 6.4-8.8), with or without metal ions, incubated (30 min., 37° C.), centrifuged (20 min., 10000 g). The amount of protein in the supernatant was determined by the Micro BCA protein assay as described above.
The resultant aggregated particles were sedimented by centrifugation to permit determination of soluble Aβ1-40 in the supernatant. To determine the centrifugation time required to completely sediment the aggregated particles generated under these conditions, Aβ1-40 was incubated for 30 min at 37° C. with no metal, Zn^2+ (100 μM), Cu^2+ (100 μM) and pH (5.5). Reaction mixtures were centrifuged at 10000 g for different times, or ultracentrifuged at 100000 g for 1 h. (FIG. 1). […] Aβ1-40 was incubated (30 min., 37° C.) with no metal, under acidic conditions (pH 5.5), Zn^2+ (100 μM) or Cu^2+ (100 μM), and centrifuged at 10000 g for different time intervals, or at 100,000 g (ultracentrifuged) for 1 h for comparison. All data points are means ±SD, n=3.
Since the conformational state and solubility of Aβ is altered at different pH (Soto, C., et al., J. Neurochem. 63:1191-1198 (1994)), the effects of [H^+] on Zn^2+- and […] Aβ1-40 aggregation were studied. […] All data points are means ±SD, n=3. [H^+] alone precipitates Aβ1-40 (2.5 μM) as the solution is lowered below pH 7.4, and dramatically once the pH falls below 6.3 (FIG. 4A). At pH 5.0, 80% of the peptide is precipitated, but the peptide is not aggregated by acidic environments below pH 5, confirming and extending earlier reports on the effect of pH on Aβ solubility (Burdick, D., J. Biol. Chem. 267:546-554 (1992)). Zn^2+ (30 μM) induced a constant level (˜50%) of aggregation between pH 6.2-8.5, while below pH 6.0, aggregation could be explained solely by the effect of [H^+].

Substance: Aβ1-40: synthetic human Aβ peptide, residues 1-40
- reduction of available Cu^2+ [1]: 60%
- reduction of available Fe^3+ [2]: 12%
- available peptide aggregated by Cu^2+ ([3]; Cu^2+ (30 μM), pH 6.8): > 85% and 85%
- level of aggregation induced by Zn^2+ ([3]; Zn^2+ 30 μM, pH 6.2-8.5): ~50%
- aggregation in the presence of Cu ([3]; pH 7.1): approx. 30%
